Here are results for one molecule from publication PMC7112944 (Science Advances, 2020).

Assay [1] has as its target T1, N_(460–525) (measles virus, UniProt P04851 460-525).
T1 sequence (looked up): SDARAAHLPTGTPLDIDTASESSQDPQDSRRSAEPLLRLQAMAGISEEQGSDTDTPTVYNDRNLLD
Nature of the assay: ITC.

Assay [2] addresses T1, N_(460–525). Nature of the assay: ITC + NMR titration.

B1: Phosphoprotein XD domain (PXD), P_(457–507) (domain or fragment, measles virus, UniProt P03422 457-507, looked up)
chain: GPASRSVIRSIIKSSRLEEDRKRYLMTLLDDIKGANDLAKFHQMLMKIIMK
B1: in the assay with N_(460–525) [1], the dH was -10460 ± 46.5 cal/mol and the stoichiometry N (usually a count of units in the complex or per binding partner) amounted to 0.927 sites. The equilibrium dissociation constant (Kd) (commonly the equilibrium constant for the complex coming apart) with N_(460–525) [2] is ~5 µM.
